Experimental data: article PMC8699718, “A structurally conserved site in AUP1 binds the E2 enzyme UBE2G2 and is essential for ER-associated degradation” (PLoS Biology, 2021)

Test system: NHK (Null Hong Kong variant of alpha1-antitrypsin)
Assay: CHX chase: NHK degradation in HT1080 UBE2G2 KO cells
Format: cell-based, human
Conditions: re-expression in HT1080 UBE2G2 KO
Method: Fig 3 The AUP1–UBE2G2 interaction is required for ERAD. (A) Equimolar amounts of GST-AUP1 (aa 292 to 410) or GST were immobilized on glutathione beads and binding to the indicated in vitro translated ^35S-labeled E2s was assessed. Left panel is 5% of input used for binding. E2s are referred to by their unique alpha-numeric designation (e.g., UBE2G1 and UBE2J1). (B) HT1080 or UBE2G2 KO cells were transfected with INSIG-1-MYC and degradation assessed by CHX chase. […] (D) Cells were transfected with NHK-MYC and HA-ubiquitin and ubiquitination of NHK assessed following proteasome inhibition and IP (right panel). Left panel is 10% of total cell lysate used for IP, indicating no discernable change in total ubiquitination. (E) Levels of endogenous HRD1 were monitored by CHX chase in the indicated cell types. (F) Ubiquitination of endogenous HRD1 was assessed following IP with HRD1 antiserum. Arrow in upper panel indicates migration of unmodified HRD1. […]
Plasmid transfections were carried out using PolyFect (Qiagen, Germantown, MD, USA) or JetPrime (Polyplus, New York, NY, USA) reagents. […] Clarified lysates or immunoprecipitates were denatured by heating in NuPAGE LDS Sample Buffer with β-mercaptoethanol at 70°C for 10 minutes, resolved on Bis-Tris polyacrylamide gels in NuPAGE MES or MOPS SDS running buffer and analyzed by western blotting. […]

B1: UBE2G2: ERAD ubiquitin-conjugating enzyme (E2); purified in vitro, N-terminally MYC-tagged in cells (protein)
chain: MAGTALKRLMAEYKQLTLNPPEGIVAGPMNEENFFEWEALIMGPEDTCFEFGVFPAILSFPLDYPLSPPKMRFTCEMFHPNIYPDGRVCISILHAPGDDPMGYESSAERWSPVQSVEKILLSVVSMLAEPNDESGANVDASKMWRDDREQFYKIAKQIVQKSLGL
- NHK degradation in UBE2G2 KO cells: restored NHK degradation
